Measured values published in the nanobody polyreactivity screen of Harvey et al. (2022).

Assay: yeast display, Sf9 membrane polyspecificity reagent, FACS + sequencing; frameworks hold sequencing errors
Summary of the method: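 After 36–48 hours of galactose induction, yeast (Saccharomyces cerevisiae BJ5465) displaying a synthetic nanobody library were stained at 4 °C for 1 hour with 10% biotinylated, detergent-solubilized Sf9 membrane reagent. Streptavidin microbeads enriched the stained cells before FACS sorting into low and high (top ~1%) gates on anti-HA and streptavidin fluorescence. Each clone's polyreactivity label reflects its gate of origin.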

| Sequence | polyreactivity (PSR sort gate) |
| --- | --- |
| QVQLVESGGGLVQAGGSLRLSCAASGSIFGLYAMGWYRQAPGKERELVAAITWSSGNTYYADSVKGRFTISRDNAKNTVYLQMYSLKPEDTAVYYCAATSVSISYRYDYWGQGTQVTVSS | high polyreactivity |
| QVQLVESGGGLVQAGGSLRLSCAASGSIFGNAMGWYRPAPGKERELVAAISRRGGRTYYADSVKGRFTISRDNAKNTVYLQMNSLKPEDTAVYYCANTAKTWGWWLRGYGYWGQGTQVTVSS | high polyreactivity |
| QVQLVESGGGLVQAGGSLRLSCAASGSIFGNAMGWYRQAPGKEREFVAAISSSGSSTYYADSVKGRFTISRDNAKNTVYLQMNSLKPEDTAVYYCANRRRSAAPKYDYWGQGTQVTVSS | high polyreactivity |
| QVQLVESGGGLVQAGGSLRLSCAASGSIFGNTMGWYRQAPGKEWEFVAAISSTGGNTYYADSVKGRFTISRDNAKITVYLQMNSLKPEDTAVYYCNRRYRYRFGYWGQGTQVTVSS | high polyreactivity |
| QVQLVESGGGLVQAGGSLRLSCAASGSIFGPNAMGWYRQAPGKERELVAAISKSGSSTYYADSVKGRFTISRDNAKNTVYLQMNSLKREDTAVYYCAAKVSYSGVFSYYYWGQGTQVTVSS | high polyreactivity |
| QVQLVESGGGLVQAGGSLRLSCAASGSIFGPYAMGWYRQAPGKERELVAAISKGGGSTYYADSVKGRFTISRDNAKNTVYLQMNSLKPDDTAVYYCAADQDKPYDHWGQGTQVTVSS | low polyreactivity |
| QVQLVESGGGLVQAGGSLRLSCAASGSIFGPYAMGWYRQAPGKERELVAANTWTGGRTYYSDSVKGRFTISRDNAKNTVYLQMNSLKPEDTAVYYCAVRHRYTRAYWGRDYWGQGTQVTVSS | low polyreactivity |
| QVQLVESGGGLVQAGGSLRLSCAASGSIFGPYAMGWYRQAPGKERELVADIRTSGGGTYYADSVKGRFTISRDNAKNTVYLQMNSLKPEDTAVYYCNADPKWEMGSWGQGTQVTVSS | low polyreactivity |
| QVQLVESGGGLVQAGGSLRLSCAASGSIFGPYAMGWYRQAPGKERELVASITNSGSTYYADSVKGRFTISRDNAKNTVYLQMNSLKPEDTAVYYCAVDERTWINDPEEYDYWGQGTQVTVSS | low polyreactivity |
| QVQLVESGGGLVQAGGSLRLSCAASGSIFGPYAMGWYRQAPGKERELVATITSGGRTYYADSVKGRFTISRDNAKNTVYFQLNSLKPEDTAVYYCAAAGKGRYHVRSTMDYWGQGTQVTVSS | high polyreactivity |
| QVQLVESGGGLVQAGGSLRLSCAASGSIFGPYMGWYRQAPGKERELVASVVSTYYADSVKGRFTISRDNAKNTVYLQMNSLKPEDTAVYYCNTQDTKNKSSVFVPSDYWGQGTQVTVSS | low polyreactivity |
| QVQLVESGGGLVQAGGSLRLSCAASGSIFGQNAMGWYRQAPGKEREMVDAITSGAGITYYADSVKGRFTISRDNAKNTVYLQMNSLKPEDTAVYYCNAVPSWSPSALFDYWGQGTQVTVAS | low polyreactivity |
| QVQLVESGGGLVQAGGSLRLSCAASGSIFGQYAMGWYRQAPGKERELVAAITWDGTSTYYADSVKGRFTISRDNAKNTVYLQMNSLKPEDTAVYYCAADFYPYSWEEVDYWGQGTQVTVSS | low polyreactivity |
| QVQLVESGGGLVQAGGSLRLSCAASGSIFGQYTMGWYRQAPGKERELVAVISTRGGSTYYADSVKGRFTISRDNAKNTVYLQMNSLKPEDTAVYYCAASAFRGREMDYWGQGTQVTVSS | low polyreactivity |
| QVQLVESGGGLVQAGGSLRLSCAASGSIFGRNAMGGYRQAPGSERELVARISSRGGSTYYADSVKGRFTISRDNAKNTVDLQMNSLKPEDTAVYYCNRDRTSQTNDYWGQGTQVTVSS | high polyreactivity |
| QVQLVESGGGLVQAGGSLRLSCAASGSIFGRNAMGWYIQAPGKERELVAAINSGGSTNYADSVKGRFTISRDNAKNTVYLQMNSLKPEDTAVYFCAARTYSSGRYYGYVAFYYWGQGTQVTVSS | high polyreactivity |
| QVQLVESGGGLVQAGGSLRLSCAASGSIFGRNAMGWYRHAPGKERELVARISSRGGSTYYADSVKGRFTISRDNAKKTVYLQMNSLKPEDTAVYYCNRDRTWQTNDYWGQGTQVTVSS | high polyreactivity |
| QVQLVESGGGLVQAGGSLRLSCAASGSIFGRNAMGWYRQAPGKERELVAAINYSGTSTYYADSVKGRFTISRDNAKNTVYLQMNSLKPEDTAVYYCAKARHKSPTYTHDSWGQGTQVTVSS | high polyreactivity |
| QVQLVESGGGLVQAGGSLRLSCAASGSIFGRNAMGWYRQAPGKERELVAAITGSTYYADSVKGRFTISRDNAKNTVYLQMNSLKPEDTAVYYCNADYDVGWTYDTEYNYWGQGTQVTVSS | low polyreactivity |
| QVQLVESGGGLVQAGGSLRLSCAASGSIFGRNAMGWYRQAPGKERELVAVITSTGGSTYYADSVKGRFTISRDNAKNTVYLQMNSLKPEDTAVYYCAARTRYRYGYWGQGTQVTVSS | high polyreactivity |
| QVQLVESGGGLVQAGGSLRLSCAASGSIFGRNDMGWYRQAPRKERELLARITRGGSTNYADSVKGRVTISRDNAKYTVYLQMNSLKPEDTAVYYCAAGARQYRGVPDRYGYWGQGTQVTVSS | low polyreactivity |

| Sequence | polyreactivity (PSR sort gate) |
| --- | --- |
| QVQLVESGGGLVQAGGSLRLSCAASGSIFGRYAMGWYRQAPGKEMELVAAISTGDSTYYADSVKGRFTISRDNAKNTVYLQMNSLKPEDTAVYYCNRRGRRGYDYWGQGTQVTVSS | high polyreactivity |
| QVQLVESGGGLVQAGGSLRLSCAASGSIFGRYAMGWYRQAPGKERELVAAISSSGGRTYYADSVNGRFTISRDNAKNTVYLQMNSLKPEDTAVYYCNAGTPYRGDYWGQGTQVTVSS | high polyreactivity |
| QVQLVESGGGLVQAGGSLRLSCAASGSIFGRYAMGWYRQAPGKERELVAAITFTGGSTYYADSVKGRFTISRDNAKNTVYLQMNSLKPEDTAVYYCAARSLFYRGYGYWGQGTQVTVSS | high polyreactivity |
| QVQLVESGGGLVQAGGSLRLSCAASGSIFGRYAMGWYRQAPGKERELVAAITRSGVSTYYADSVKGRFTISRDNAKNTVYLQMNSLKPEDTAVYYCNAYYPIRSSPNGYYYWGQGTQVTVSS | high polyreactivity |
| QVQLVESGGGLVQAGGSLRLSCAASGSIFGSNAMGWYRQAPGKERELVAAITNTGRTNYADSVKGRFTISRDNAKNTVYLQMNSLKPEDTAVYYCNTDGYEFTHFAAGSGWRFDYWGLGTQVTVSS | low polyreactivity |
| QVQLVESGGGLVQAGGSLRLSCAASGSIFGSNMGWYRQAPGKERELVAAISSRGGRTYYADSVKGRFTISRVNAKNTVYLQMNSQKPEDTAVYYCATRTFRGGRGYEYWGQGTQVTVSS | high polyreactivity |
| QVQLVESGGGLVQAGGSLRLSCAASGSIFGSYAMGWYRPAPGKERELVAGITYRGSSTYYADSVKGRFTISRDNAKNTVYLQMNSLKPEDTAVYYCAADSVFDEYDYWGQGTQVTVSS | low polyreactivity |
| QVQLVESGGGLVQAGGSLRLSCAASGSIFGSYAMGWYRQAPGKERELVAAITYSGGSTYYADSVKGRFTISRDNAKNTVYLHMNSLKPEDTAVYYCAADYSFYWAYFDYWGQGTQVTVSS | high polyreactivity |
| QVQLVESGGGLVQAGGSLRLSCAASGSIFGTNAMGWYRPAPGKERELVAAINWSGGTTYYADSVKGRFTISRDIAKNTVYLQMNSLKPEDTAVFYCNVGYPSIYDYWGQGTQVTVSS | low polyreactivity |
| QVQLVESGGGLVQAGGSLRLSCAASGSIFGTNAMGWYRQAPGKERELVAAITGRGGSTYYADSVKGRFTISRDNAKNTVYLQMNSLKPEDTAVYYCAVKISTYTYGYWGQGTQVTVSS | high polyreactivity |
| QVQLVESGGGLVQAGGSLRLSCAASGSIFGTNAMGWYRQAPGKERELVATITSAGSTYYADSVKGRFTISRYNAKNTVYLQMNSLKPEDTAVYYCARQATGYVYREYEYWGQGTQVTVSS | low polyreactivity |
| QVQLVESGGGLVQAGGSLRLSCAASGSIFGTNTMGWYRQAPGKERELVAAIRLSDSSTYYADSVKGRFTISRDNAKNTVYLQMNSLKPEDTAVYYCAVDYRAYHYYRYDYWGQGTQVTVSS | low polyreactivity |
| QVQLVESGGGLVQAGGSLRLSCAASGSIFGTYAMGWYIQAPGKEREFVAAISWSDGSTYYADSVKGRFTISRDNAKNTVYLQMNSLKPEDTAVYYCAAGPSQYTEFDYWGQGTQVTVSS | low polyreactivity |
| QVQLVESGGGLVQAGGSLRLSCAASGSIFGVNAMGWYRQAPGKERELVASISLSDDRTYYADSVKGRFTISRDNAKNTVYLQMNSLKPEDTAVYYCARRILWYWDVYPSLAEYDYWGQGTQVTVSS | low polyreactivity |
| QVQLVESGGGLVQAGGSLRLSCAASGSIFGVYAMGWYRQAPGKERELVAAIDSGGDTYYADSVKGRFTISRDNAKNTVYLQMNSLKPEDTAVYYCNAPYNRATYNYWGQGTQVTVSS | high polyreactivity |
| QVQLVESGGGLVQAGGSLRLSCAASGSIFGVYAMGWYRQAPGKERGLVARISGSSGSTRYADSVKGRFTISRDNAKNTVYLQMNSLKPEDTAVYYCAARAIFRQGDRIYDSWGQGTQVTVSS | high polyreactivity |
| QVQLVESGGGLVQAGGSLRLSCAASGSIFGVYDMGWYRQAPGKEREVVAVINSNGGSTYYADSVKGRFTISRDNAKNTVYLQMNSLKPEDTAVYYCAADYQSYVYIGYGYWGQGTQVTVSS | low polyreactivity |
| QVQLVESGGGLVQAGGSLRLSCAASGSIFGVYTMGWYRQAPGKERELVAAITSAGSTYADSVKGRFTISRDNAKNTVYLQMNSLKPEDTEVFYCNAQSVLLSLRVELREPHEYWGQGTQVTVSS | low polyreactivity |
| QVQLVESGGGLVQAGGSLRLSCAASGSIFGWYAKGLYRQAPGKEREFVAVISSSGDSTFYADSVKGRFTISRDNAKNTVYLQMNSLKPEDTAVYYCAAYYYYYYWPQTAYWQGDYWGHGTQVTVSS | high polyreactivity |
| QVQLVESGGGLVQAGGSLRLSCAASGSIFGYNAMGWSRPAPGKERELVAAITSSGGSTYYADSVKGRFTISRDNAKNTVYLQMNSLKPEDTAVYYCNARDWYIVWYDYWGQGTQVTVSS | low polyreactivity |
